{
  "source": "IntAct's records for PubMed 21526221",
  "parents": {"B1": {"name": "SWI5-dependent HO expression protein 3 (Saccharomyces cerevisiae), P38272 (parent)", "chain": "MSDQDNTQTSSSKLAPHHNIFMANLESSPTKDRNTSSQNASSSRVIESLHDQIDMLTKTNLQLTTQSQNLLSKLELAQSKESKLLENLNLLKNENENLNSIFERKNKKLKELEKDYSELSNRYNEQKEKMDQLSKLAKNSSAIEQSCSEKLQNMEVNYNSLLESQNLYRDHYSDEISKLNEKIGLLELELSNQNLNYGSDTSSNSDIELNLNKFNDSVKDLKSLETEKDSKLSKIITHSLDELNLQSWLNLYQTNENLISTFAEKMDLKDVLKRNDEKISNKGAVVQTLKKNVQTQVESNNADALSSNNAQDMLPIKMVKLRKTPNTNDSSSNGNSSNNKRRSFYTASPLLSSGSIPKSASPVLPGVKRTASVRKPSSSSSKTNVTHNNDPSTSPTISVPPGVTRTVSSTHKKKGNSMVVHGAQS"}},
  "data": [
    {"variants_of": "B1", "settings": "with she2_yeast SHE2, P36068", "values": [
      {"variant": "L364A;V367A", "effect of a mutation on the interaction": "disrupting interaction"}
    ]}
  ]
}
